Patent US20260193315A1 (FBD BIOLOGICS, published 2026)
Substitutions are numbered along the chain they refer to.

B1: 1D2 (ligand)
4-1BBL variant: ACPWAVSGARASPGSAASPRLREGPELSPDDPAGLLDLRQGMFAQLVAQNVLLIDGPLSWYEDPGLAGVSLTGGLSYKEDTKELVVAKAGVYYVFFQLELRRVVAGTGSGSVSLALHLQPLRSAAGAAALALTVDLPPASSEARNSAFGFQGRLLHLSAGQRLGVHLHTEARARHALQLTQGATVLGLFRVTPEIPAGLPSPRSE
notes: also called 4-1BBL variant 1D2 (phagemid clone, bacterial supernatant)
B2: 5D9 (ligand)
4-1BBL variant: B1 4-1BBL variant with W60F, E62S, L177W, L179M
notes: also called 4-1BBL variant 5D9 (phagemid clone, bacterial supernatant)
B3: 4E10 (ligand)
4-1BBL variant: B1 4-1BBL variant with E62P, G106R, T107E, L177M
notes: also called 4-1BBL variant 4E10 (phagemid clone, bacterial supernatant)
B4: 4C2 (ligand)
4-1BBL variant: B1 4-1BBL variant with E62P, T107R, L177W, L179F
notes: also called 4-1BBL variant 4C2 (phagemid clone, bacterial supernatant)
B5: 8E2 (ligand)
4-1BBL variant: B1 4-1BBL variant with E62P, G106F, T107E, A176S, L177W
notes: also called 4-1BBL variant 8E2 (phagemid clone, bacterial supernatant)
B6: 8B10 (ligand)
4-1BBL variant: B1 4-1BBL variant with E62T, T107M, A176S, L177W
notes: also called 4-1BBL variant 8B10 (phagemid clone, bacterial supernatant)

How the values were obtained:
[1] = biological target: T1, 4-1BB (coated on ELISA plate) (UniProt Q07011 24-186, limits assumed); test: ELISA on coated 4-1BB, supernatant
Experimental: (§1) After centrifugation, culture supernatant was collected for determination of expression and binding activity of the 4-1BBL variants. To determine expression of the 4-1BBL variants, a 96-well plate (flat bottom) was coated with 2 μg/ml anti-His tag antibody overnight. The pre-coated plate was then blocked with 5% milk in PBS at room temperature (RT) for 1 hour. After blocking, 30 μl of bacterial supernatant was added to each well of the plate, and the plate was incubated for 1 hour at RT. After the incubation, anti-c-myc-HRP was added, and the expression level of 4-1BBL variants can be determined by measuring OD450 in a plate reader. To determine binding activity of the 4-1BBL variants, a 96-well plate (flat bottom) was coated with 0.5 μg/ml of 4-1BB overnight. The pre-coated plate was then blocked with 5% milk in PBS at RT for 1 hour. After blocking, 30μ of bacterial supernatant was added to each well of the plate, and the plate was incubated for 1 hour at RT. After the incubation, anti-c-myc-HRP was added, and the 4-1BB-binding activity of 4-1BBL variants can be determined by measuring OD450 in a plate reader.
(§2) The 4-1BB-binding activity was measured using the same methods described above. With respect to 4-1BB-mediated NF-κB reporter activity, a 96-well plate (flat bottom) was coated with 5 μg/ml anti-c-myc antibody at 4° C. overnight. The induced 4-1BBL variant supernatants were added to the pre-coated plate, and the plate was incubated at 37° C. for 2 hours. The above steps were repeated for six times. Afterwards, 1×10⁵/well of transfected NF-κB Jurkat cells expressing 4-1BB was added to the plate, which was then incubated for 5 hours at 37° C. After the incubation, the luminance signal was detected to determine the 4-1BB reporter activity.

[2] = biological target: T1, 4-1BB (coated on ELISA plate); test: ELISA, binding OD450 / expression OD450
Experimental: as §1, §2

[3] = biological target: T1, 4-1BB (coated on ELISA plate); test: ELISA, binding OD450 / expression OD450; remark: listed apart in the source
Experimental: as §1

[4] = biological target: T1, 4-1BB (coated on ELISA plate); test: ELISA, binding OD450 / expression OD450, after 45 °C 30 min
Experimental: as §1

[5] = biological target: 4-1BB on transfected NF-κB Jurkat cells (UniProt Q07011 24-255, limits assumed); test: cell-based or functional assay
Sequence of 4-1BB on transfected NF-κB Jurkat cells (Q07011 24-255 limits assumed): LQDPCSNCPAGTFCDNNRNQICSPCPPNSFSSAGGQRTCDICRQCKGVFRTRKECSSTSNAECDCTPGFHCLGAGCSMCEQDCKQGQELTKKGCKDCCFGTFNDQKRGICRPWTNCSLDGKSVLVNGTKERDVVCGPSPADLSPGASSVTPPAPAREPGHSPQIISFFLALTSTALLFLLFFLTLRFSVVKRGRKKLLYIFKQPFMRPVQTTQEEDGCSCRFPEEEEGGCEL

[6] = biological target: T1, 4-1BB (coated on ELISA plate); test: ELISA on coated 4-1BB, supernatant after 45 °C 30 min, OD450
Experimental: as §1

[7] = biological target: T1, 4-1BB (coated on ELISA plate); test: ELISA on coated 4-1BB, supernatant, OD450
Experimental: as §1

[8] = biological target: T1, 4-1BB (coated on ELISA plate); test: ELISA, binding/expression ratio relative to WT
Experimental: as §1, §2

| Binder | Binding (OD450) [1] [OD450] | Binding/Expression ratio [2] | Binding / Expression ratio (25 degrees) [3] | Binding / Expression ratio (45degrees) [4] | Reporter (RLU) [5] [RLU] | Reporter (vs wt) [5] | Reporter/Expression ratio [5] | Binding (45 °C) [6] | Binding (25 °C) [7] | Binding (vs wt) [8] |
| --- | --- | --- | --- | --- | --- | --- | --- | --- | --- | --- |
| B1 | 1.35 | 0.66 | 0.525 | 0.553 | 4390 | 0.75 | 2150 | 0.803 | 1.16 | 0.38 |
| B2 | 1.98 | 1.75 | 1.53 | 0.537 | 4780 | 1.48 | 4240 | 0.205 | 1.43 | 1.01 |
| B3 | 0.975 | 1.04 | 0.679 | 0.885 | 7360 | 2.74 | 7830 | 1.25 | 1.36 | 0.6 |
| B4 | 1.12 | 0.67 | 0.431 | 0.506 | 3420 | 0.71 | 2040 | 0.823 | 0.657 | 0.38 |
| B5 | 0.392 | 0.21 | 0.188 | 0.388 | 4880 | 0.9 | 2570 | 0.309 | 0.231 | 0.12 |
| B6 | 1.75 | 2.65 | 1.79 | 0.636 | 8820 | 4.66 | 13300 | 0.182 | 1.5 | 1.52 |
